Test results published in IntAct's records for PubMed 16228008.

B1: E3 ubiquitin-protein ligase CBL-B (Homo sapiens), Q13191-1 (parent)
chain: MANSMNGRNPGGRGGNPRKGRILGIIDAIQDAVGPPKQAAADRRTVEKTWKLMDKVVRLCQNPKLQLKNSPPYILDILPDTYQHLRLILSKYDDNQKLAQLSENEYFKIYIDSLMKKSKRAIRLFKEGKERMYEEQSQDRRNLTKLSLIFSHMLAEIKAIFPNGQFQGDNFRITKADAAEFWRKFFGDKTIVPWKVFRQCLHEVHQISSGLEAMALKSTIDLTCNDYISVFEFDIFTRLFQPWGSILRNWNFLAVTHPGYMAFLTYDEVKARLQKYSTKPGSYIFRLSCTRLGQWAIGYVTGDGNILQTIPHNKPLFQALIDGSREGFYLYPDGRSYNPDLTGLCEPTPHDHIKVTQEQYELYCEMGSTFQLCKICAENDKDVKIEPCGHLMCTSCLTAWQESDGQGCPFCRCEIKGTEPIIVDPFDPRDEGSRCCSIIDPFGMPMLDLDDDDDREESLMMNRLANVRKCTDRQNSPVTSPGSSPLAQRRKPQPDPLQIPHLSLPPVPPRLDLIQKGIVRSPCGSPTGSPKSSPCMVRKQDKPLPAPPPPLRDPPPPPPERPPPIPPDNRLSRHIHHVESVPSRDPPMPLEAWCPRDVFGTNQLVGCRLLGEGSPKPGITASSNVNGRHSRVGSDPVLMRKHRRHDLPLEGAKVFSNGHLGSEEYDVPPRLSPPPPVTTLLPSIKCTGPLANSLSEKTRDPVEEDDDEYKIPSSHPVSLNSQPSHCHNVKPPVRSCDNGHCMLNGTHGPSSEKKSNIPDLSIYLKGDVFDSASDPVPLPPARPPTRDNPKHGSSLNRTPSDYDLLIPPLGEDAFDALPPSLPPPPPPARHSLIEHSKPPGSSSRPSSGQDLFLLPSDPFVDLASGQVPLPPARRLPGENVKTNRTSQDYDQLPSCSDGSQAPARPPKPRPRRTAPEIHHRKPHGPEAALENVDAKIAKLMGEGYAFEEVKRALEIAQNNVEVARSILREFAFPPPVSPRLNL
partner: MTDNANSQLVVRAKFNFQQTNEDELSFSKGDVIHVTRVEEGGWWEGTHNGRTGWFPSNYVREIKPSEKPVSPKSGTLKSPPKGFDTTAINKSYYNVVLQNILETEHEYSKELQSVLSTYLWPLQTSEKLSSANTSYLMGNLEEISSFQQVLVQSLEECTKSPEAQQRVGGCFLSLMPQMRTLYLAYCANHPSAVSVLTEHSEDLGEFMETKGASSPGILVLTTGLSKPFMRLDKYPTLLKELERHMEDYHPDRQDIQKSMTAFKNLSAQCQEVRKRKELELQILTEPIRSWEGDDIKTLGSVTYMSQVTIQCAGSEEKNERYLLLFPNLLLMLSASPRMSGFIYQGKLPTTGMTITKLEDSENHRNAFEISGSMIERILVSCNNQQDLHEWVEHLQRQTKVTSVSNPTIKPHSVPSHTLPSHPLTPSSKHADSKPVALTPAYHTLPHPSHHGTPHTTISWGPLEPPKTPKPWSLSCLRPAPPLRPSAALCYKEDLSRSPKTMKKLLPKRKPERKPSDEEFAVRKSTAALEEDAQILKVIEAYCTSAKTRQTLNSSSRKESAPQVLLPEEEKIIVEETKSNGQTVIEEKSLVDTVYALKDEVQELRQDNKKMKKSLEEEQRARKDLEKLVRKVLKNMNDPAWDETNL

Variants of: B1
Conditions: with arhg7_rat Arhgef7, O55043

effect of a mutation on the interaction	Variant
decreasing interaction strength	R904A
